In US20190256612A1 (NEW YORK UNIVERSITY, published 2019) one finds binding result and Kd data, which are given here for 1 molecule.

One experiment concerns the target T1, Aβ40p (Covalently polymerized with glutaraldehyde into stable oligomers. The cross-links between copies cannot be carried by the letters, so only the monomer unit is given.).
T1 construct: also called Aβ1-40 polymerized; Aβ1-40 polymerized with glutaraldehyde
The experiment can be described thus: immunoblot after SDS-PAGE, antigen on nitrocellulose, anti-mouse IgM detection. A general note: A western blot detects proteins with antibodies after separation by electrophoresis.

Another experiment concerns the target T2, Aβ1-40.
T2 construct: also called Aβ1-40 as loaded on the gel (not polymerized)
The experiment is described as above.

For experiment [1], the target named is T3, glutaraldehyde polymerized Aβ1-42 (oligomeric Aβ1-42) (UniProt P05067 672-713).
T3 construct: domain: Aβ1-42
Briefly: SPR, polymerized Aβ1-42 immobilised, antibody injected. For orientation: SPR reads the build-up and loss of mass on a sensor chip optically.

B1: anti-β-sheet conformational monoclonal antibody (aβComAb) GW-23B7 (antibody)
heavy: EVQLQQSVAELVRPGASVKLSCTASGFNIKNTYMHWVKQRPEQGLEWIGRIDPANGNTKYAPKFQGKATITADTSSNTAYLQLSSLTSEDTAIYYCARGSFYAMDYWGQGTSVTVSSESQSFPNVFPLVSCESPLSDKNLVAMGCLARDFLPSTISFTWNYQNNTEVIQGIRTFPTLRTGGKYLATSQVLLSPKSILEGSDEYLVCKIHYGGKNRDLHVPIPAVAEMNPNVNVFVPPRDGFSGPAPRKSKLICEATNFTPKPITVSWLKDGKLVESGFTTDPVTIENKGSTPQTYKVISTLTISEIDWLNLNVYTCRVDHRGLTFLKNVSSTCAASPSTDILTFTIPPSFADIFLSKSANLTCLVSNLATYETLNISWASQSGEPLETKIKIMESHPNGTFSAKGVASVCVEDWNNRKEFVCTVTHRDLPSPQKKFISKPNEVHKHPPAVYLLPPAREQLNLRESATVTCLVKGFSPADISVQWLQRGQLLPQEKYVTSAPMPEPGAPGFYFTHSILTVTEEEWNSGETYTCVVGHEALPHLVTERTVDKSTGKPTLYNVSLIMSDTGGTCY
light: DVQITQSPSYLAASPGETITINCRASKSINKYLAWYQEKPGKTNKLLIYSGSTLQSGIPSRFSGSGSGTDFTLTISSLEPEDFAMYHCQQHNEYPWTFGGGTKLEIKRADAAPTVSIFPPSSEQLTSGGASVVCFLNNFYPRDINVKWKIDGSERQNGVLNSWTDQDSKDSTYSMSSTLTLTKDEYERHNSYTCEATHKTSTSPIVKSFNRNEC
On to B1, for which the binding result with Aβ40p and with Aβ1-40 was “binds” in each case. This molecule had a dissociation constant (Kd) in experiment [1] of 14 nM.

The term Kd denotes a measure of binding affinity in units of concentration. Read a high Kd as a looser complex.
